Paper PMC4346626

Biological target: envelope (E) protein of DENV3 reference strain CH53489, on the virus particle (dengue virus serotype 3, strain CH53489)

B1: Fab fragment of human monoclonal antibody 5J7 (Fab, V domains shown)
VH: QVQLVQSGAELRKPGSSVKVSCRASGGTFSSYTFNWVRQAPGQGLEWMGGFIPVFNTTNYAQTFQGRVTIAADKSTSTAYMELRSLRSEDTAIYYCARDKELLFSRAFDIWGQGTMVTVSS
VL: DIQMTQSPSSLSASVGDRVTITCRASQSISRYLNWYQREPGKAPKLLIYGASSLQRGVPSRFSGSGSGTDFTLTISSLQPEDFATYYCQQSQYIPYTFGQGTKVDIK
neut50, flow cytometry-based neutralization of DENV3 (CH53489) infection of Vero-81 cells: 0.041 µg/mL
